Molecular target: human FcRn (human)
Assay: BIAcore SPR, soluble IgG over immobilized human FcRn, pH 6.0; reference purified cynomolgus monkey IgG

ratio of the human over cynomolgus IgG concentrations at Req50%: 0.9
Substance: humanized anti-RSV monoclonal antibody MEDI-524 (from UniProt P01857 1-330)
